Columns and labels:
kallikrein = conditions: literature report; cited from earlier work
plasmin = plasmin (Homo sapiens, UniProt P00747); conditions: literature report; cited from earlier work
trypsin = conditions: literature report; cited from earlier work
Human trypsin = target: T1, Human trypsin (Homo sapiens, UniProt P07477); test: Human trypsin-inhibiting activity, substrate S-2444; format: biochemical; conditions: purified products, concentration as U/ml bovine trypsin-inhibiting activity based on UTI
T1 construct: purchased Calbiochem
Experimental: The purified sample obtained in Example 1-(5) was dissolved in 100 μl of distilled water. Concentration of this solution was determined based on its bovine trypsin-inhibiting activity using the aforementioned UTI as a standard. The solution was then diluted to various concentration levels with 0.1% BSA/0.2M triethanolamine-HCl buffer (pH 7.8) for the activity measurement. The aforementioned UTI was also diluted in the same manner.
Using the aforementioned synthetic compound S-2444 as a substrate, human trypsin-inhibiting activities of the diluted test samples and the positive control were measured in accordance with the method of Kassell (Kassell B., Methods in Enzymol., vol 19, pp.84-852, 1970) as follows.
Human trypsin (Calbiochem) was dissolved in 0.001M HCl to a concentration of 1,000 SU/ml and the solution was further diluted with 0.1% BSA/0.2M triethanolamine-HCl buffer (pH 7.8) to prepare 1.25 SU/ml of trypsin solution. 2 mM solution of S-2444 was prepared by dissolving it in distilled water.
Next, 100 μl of the test sample or positive control was mixed with 100 μl of the trypsin solution. After incubation at 37° C. for 10 minutes, 50 μl of the S-2444 solution was added to the mixture to start the reaction. The reaction was carried out at 37° C. for 20 minutes and then stopped by adding 50 μl of 50% acetic acid solution to the reaction mixture. Thereafter, absorbance at 405 nm was measured using a spectrophotometer.
In this instance, in order to eliminate absorbance of various solutions in the reaction mixture, a blank solution was prepared by mixing 100 μl of the trypsin solution with 50 μl of 50% acetic acid and then with 100 μl of each test sample or the positive control and with 50 μl of the S-2444 solution.
In this figure, human trypsin remaining activity was expressed by percentage based on the absorbance of a control reaction mixture in which 100 μl of 0.1% BSA/0.2M triethanolamine-HCl buffer (pH 7.8) was used instead of the test sample or the positive control.

FXa = FXa (Homo sapiens, UniProt P00742); test: Human FXa-inhibiting activity, substrate S-2222; format: biochemical; design: purchased American Diagnostica Inc; conditions: purified products, FIG. 25 and FIG. 26
Chain of FXa (P00742 235-488 limits assumed): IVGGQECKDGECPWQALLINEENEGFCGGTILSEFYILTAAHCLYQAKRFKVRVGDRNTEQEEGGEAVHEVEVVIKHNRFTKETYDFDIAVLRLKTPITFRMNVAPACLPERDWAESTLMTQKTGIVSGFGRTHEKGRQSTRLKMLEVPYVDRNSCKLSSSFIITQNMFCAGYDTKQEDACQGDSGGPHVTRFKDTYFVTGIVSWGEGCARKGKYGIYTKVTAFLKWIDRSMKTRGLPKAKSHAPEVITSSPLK
Chain of FXa (P00742 41-179 partner limits assumed): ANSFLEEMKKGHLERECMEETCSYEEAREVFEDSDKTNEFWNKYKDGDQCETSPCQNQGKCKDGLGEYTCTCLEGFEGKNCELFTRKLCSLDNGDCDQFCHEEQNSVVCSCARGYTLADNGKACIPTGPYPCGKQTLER
Experimental: The purified sample obtained in Example 1-(5) was dissolved in 100 μl of distilled water. Concentration of this solution was determined based on its bovine trypsin-inhibiting activity using the aforementioned UTI as a standard. The solution was then diluted to various concentration levels with 0.1% BSA/150 mM NaCl/5 mM CaCl2 /50 mM Tris-HCl buffer (pH 8.3) for use in the activity measurement. The UTI was also diluted in the same manner. Using a synthetic compound S-2222 (Daiichi Pure Chemicals Co., Ltd.) as a substrate, human FXa-inhibiting activities of the diluted test samples and the positive control were measured in accordance with the method of Ohno et al. (Ohno,H. et al., Thromb. Res., vol.19, pp.579-588, 1980) as follows.
Human FXa (American Diagnostica Inc.) was dissolved in distilled water to a concentration of 10 PEU/ml and the solution was further diluted with 0.1% BSA/150 mM NaCl/5 mM CaCl2 /50 mM Tris-HCl buffer (pH 8.3) to prepare 0.1 PEU/ml of FXa solution. 4 mM solution of S-2222 was prepared by dissolving it in distilled water and the solution was further diluted with 0.1% BSA/150 mM NaCl/5 MM CaCl2 /50 mM Tris-HCl buffer (pH 8.3) to obtain 2 mM solution of S-2222.
Next, 25 μl of the test sample or positive control was mixed with 100 μl of 0.1% BSA/150 mM NaCl/5 mM CaCl2 /50 mM Tris-HCl buffer (pH 8.3) and 25 μl of the FXa solution. After incubation at 37° C. for 10 minutes, 100 μl of the S-2222 solution was added to the mixture to start the reaction. The reaction was carried out at 37° C. for 30 minutes and then stopped by adding 50 μl of 50% acetic acid solution to the reaction mixture. Thereafter, absorbance at 405 nm was measured using a spectrophotometer.
In this instance, in order to eliminate absorbance of various solutions in the reaction mixture, a blank solution was prepared by mixing 25 μl of the FXa solution with 50 μl of 50% acetic acid and then with 25 μl of each test sample or the positive control, 100 μl of 0.1% BSA/150 mM NaCl/5 mM CaCl2 /50 mM Tris-HCl buffer (pH 8.3) and with 100 μl of the S-2222 solution.
In this figure, human FXa remaining activity was expressed by percentage based on the absorbance of a control reaction mixture in which 25 μl of 0.1% BSA/150 mM NaCl/5 mM CaCl2 /50 mM Tris-HCl buffer (pH 8.3) was used instead of the test sample or the positive control.

Chain of plasmin (P00747 581-810 limits assumed, species assumed): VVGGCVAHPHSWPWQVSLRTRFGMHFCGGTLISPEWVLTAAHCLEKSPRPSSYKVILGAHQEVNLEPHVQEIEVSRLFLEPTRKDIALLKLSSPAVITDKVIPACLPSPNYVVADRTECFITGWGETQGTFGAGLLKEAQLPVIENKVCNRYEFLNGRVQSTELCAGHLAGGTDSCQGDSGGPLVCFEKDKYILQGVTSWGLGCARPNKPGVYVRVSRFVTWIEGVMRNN
Chain of plasmin (P00747 97-580 partner limits assumed, species assumed): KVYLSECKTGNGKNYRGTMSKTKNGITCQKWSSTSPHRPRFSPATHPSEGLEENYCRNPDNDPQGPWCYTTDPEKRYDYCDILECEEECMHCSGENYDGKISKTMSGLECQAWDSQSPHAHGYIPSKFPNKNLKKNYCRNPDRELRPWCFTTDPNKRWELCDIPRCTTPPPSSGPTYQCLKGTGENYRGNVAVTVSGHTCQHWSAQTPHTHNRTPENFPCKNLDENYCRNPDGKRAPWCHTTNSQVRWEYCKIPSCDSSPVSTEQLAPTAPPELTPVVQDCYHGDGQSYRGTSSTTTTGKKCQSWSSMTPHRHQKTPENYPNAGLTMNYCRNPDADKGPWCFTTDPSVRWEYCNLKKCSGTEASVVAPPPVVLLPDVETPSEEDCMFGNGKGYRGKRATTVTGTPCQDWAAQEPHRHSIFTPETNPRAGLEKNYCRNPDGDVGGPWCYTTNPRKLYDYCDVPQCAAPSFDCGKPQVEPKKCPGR

human trypsin-inhibiting activity compared with polypeptides TN70 and TL66 (Human trypsin)	human FXa-inhibiting activity relative to polypeptide TN70 (FXa)	Molecule	inhibition of kallikrein (kallikrein)	inhibition of plasmin (plasmin)	inhibition of trypsin (trypsin)
		aprotinin [reference compound]	inhibits	inhibits	inhibits
almost the same	about 7 times	Y46E: polypeptide defined by the amino acid sequence of formula 5, purified from culture supernatant of E. coli JE5505 (pM575B) (protein) TVAACNLPIVRGPCRAFIQLWAFDAVKGKCVLFPYGGCQGNGNKFESEKECREYCGVPGDGDEELLRFSN			
almost the same	about 5 times	Q19K: polypeptide defined by the amino acid sequence of formula 6, purified from culture supernatant of E. coli JE5505 (pM576) (protein) DDAACNLPIVRGPCRAFIKLWAFDAVKGKCVLFPYGGCQGNGNKFYSEKECREYCGVPGDGDEELLRFSN			

Reference: patent US5792629A, “Isolated DNA encoding novel protease inhibitory polypeptide” (Mochida Pharmaceutical Co., Ltd., priority 1990, dated 1998)
